B1: 21A92/1-127 (VHH)
VHH: EVQLVESGGGQVQAGGSLRLSCTESGRAFNTRAMGWFRQAPEKEREFVAGITMSGFNTRYADSVKGRFTISRDNAKGTVYLQMSSLKPEDTAVYYCAADSITDRRSVAVAHTSYYYWGQGTQVTVSS
notes: C-term myc-His6 tag
B2: 11B31/1-124 (VHH)
VHH: EVQLVESGGGLVQAGGSLRLSCAASGGAFGVYHMGWFRQAPGKEREFVAAIRSGGTTLYEDSVKGRFTISRDNAKNTVYLRMNSLKPEDTAVYYCATQIYYRTNYYSQNAYDYWGQGTQVTVSS
notes: C-term myc-His6 tag
B3: 14H51/1-124 (VHH)
VHH: EVQLVESGGGLVQAGGSLRLSCAASGGTFGVYTMAWFRQAPGKEREFVAAIRSGATTLYEDSVKGRFTISRDDAKNTVYLRMNSLKPEDTAVYYCAAQIYYRTNYYSQNEYDYWGQGTQVTVSS
notes: C-term myc-His6 tag
B4: 13G81/1-124 (VHH)
VHH: EVQLVESGGGLVQAGGSLRLSCAASGGTFGVYHMGWFRQAPGKEREFVAVIRSGGTTLYADSVKGRFTISRDDAKNTVYLQMNSLKPEDTAVYLCAAQIYYRTNYYSQNNYDYWGQGTQVTVSS
notes: C-term myc-His6 tag
B5: 13G93/1-123 (VHH)
VHH: EVQLVESGGGLAQAGDSLRLSCVDSGSSFSAYAMGWFRQAPGKEREFVAAVSWDGRNTYYADSVKGRFTISRDNAKNTLYLQTTSLRPEDTGVYYCAEDKQSGVSVNPKYAYWGQGTQVTVSS
notes: C-term myc-His6 tag
B6: 22C712/1-123 (VHH)
VHH: EVQLVESGGGLVQAGGSLGLSCAASGRTFSNYAMGWFRQAPGKEREFVAGISWSGGHTFYADSVKGRFTISRDNTKNTVYLQMNSMRPEDTAVYYCAARLSSVAVASTRYDYWGQGTQVTVSS
notes: C-term myc-His6 tag
B7: 13G72/1-118 (VHH)
VHH: EVQLVESGGGLVQAGGSLRLSCAASGRAFSSYAMGWFRQAPGKERDFVAAITSSGSTNYADSVKGRFTISRDNAKNTVYLQMNSLKPEDTAVYYCAAKYYSYYAYDYWGQGTQVTVSS
notes: C-term myc-His6 tag
B8: 11A71A/1-116 (VHH)
VHH: EVQLVESGGGLVQPGGSLRLSCAASGNIDGIITMGWYRQRPGKPREWVGTINSGGDTNYAGSVKGRFTIARDDAKNTMYLQMNGMKPEDTAVYYCKMNRAGIYEYWGQGTQVTVSS
notes: C-term myc-His6 tag
B9: 22B910/1-121 (VHH)
VHH: EVQLVESGGGLVQPGGSLPLSCAASGSIFRMNDMGWYRQAPGKQRERVATLTSAGNTNYADSVKGRFTISGDDARNTVYLQMNSLNPEDTAVYYCNAKVVVAVEGAKYDYWGQGTQVTVSS
notes: C-term myc-His6 tag
B10: 13E111/1-124 (VHH)
VHH: EVQLVESGGGLVQAGSSLRLSCALSGRTFSDYAIGWFRQAPGKEREFVAAISGWSGGTTNYADSVKGRFTISRDNGKNTVDLRMNSLKPEDTAVYYCAARPAVVHTRKESYPYWGQGTQVTVSS
notes: C-term myc-His6 tag
B11: 11A13/1-125 (VHH)
VHH: EVQLVESGGGLVQAGDSLRLSCVASGGTFGSYAMGWFRQAPGKEREFVATIDWSGDTAFYADSVKGRFTISRDIANDVVYLQMNSLEPEDTAVYYCARNRQSGVASENLRLYTYWGQGTQVTVSS
notes: C-term myc-His6 tag
B12: 12C61/1-126 (VHH)
VHH: EVQLVESGGGLVQAGGSLRLSCAASGRTFSSNAMAWFRQAPGNERELVSAIGWSGASTYYIDSVEGRFTISRDNAKNTVYLQMNSLKPEDTAVYYCAASRYSGGVATARRSEYHYWGQGTQVTVSS
notes: C-term myc-His6 tag
B13: 13G101/1-123 (VHH)
VHH: EVQLVESGGGLVQPGDSLRLSCSASEGTLSRSRVAWFRQAPGKEREFVTVISGVGTSYADSVKGRFTISRDDAKNTVYLQMNSLKAEDTAIYYCAADFRSTWLSSSGSSYTYWGQGTQVTVSS
notes: C-term myc-His6 tag
B14: 14H12/1-125 (VHH)
VHH: EVQLVESGGGLVQAGGSLRLSCIASERTFSSAGVGWFRQAPGKERDFVAAISWNGVTIYYADSVKGRFTISRDNAKNTVYLQMNSLKPEDTAVYYCAARINYSVLTTTSSSYHYWGQGTQVTVSS
notes: C-term myc-His6 tag
B15: 13G41/1-121 (VHH)
VHH: EVQLVESGGGLVQPGGSLTLSCVGSGRRFSADVMGWYRQAPGKQREFVASISSGSAINYADSVKGRFTVSRDNAQNTVYLQMNSLKIEDTGVYYCNARRIVNVEGAYRDYWGQGTQVTVSS
notes: C-term myc-His6 tag
B16: 21A61/1-125 (VHH)
VHH: EVQLVESGGGLVQAGDSLRLSCVASGDSFNTYTMGWFRQAPGKEREFVAAIRWSGGTTFYGDSVKGRFTISRDYAKNTWYLQMNTLKPEDTAAYYCAAVATYSRNVGSVRNYDYWGQGTQVTVSS
notes: C-term myc-His6 tag
B17: 22B101/1-123 (VHH)
VHH: EVQLVESGGGLVQTGGSLRLSCAASGPTFSDYAIGWFRQAPGKEREFVAAISSSGISTIYGDSVKGRFDISRDNAKNTVYLQMNRLKPEDTAVYYCAARLFMATPNQGQYYYWGQGTQVTVSS
notes: C-term myc-His6 tag
B18: 11B42/1-123 (VHH)
VHH: EVQLVESGGGLVQAGDSLRLSCAASGFTFSNHIMGWFRQAPGKERELIAHITWNGGSTYYADSVKGRFAISRDNALNTVYLQMNSLKPEDTAVYYCAARPSYSTNNVKSYRYWGQGTQVTVSS
notes: C-term myc-His6 tag
B19: 11A121/1-126 (VHH)
VHH: EVQLVESGGGLVQAGGSLRLSCVVSEGTFSSYSMGWFRQAPGKDREFVSAITWNGTRTYYRDSVKGRFTISRDNAKNTVQLQMNSLKPEDTAVYYCAVSQPLNYYTYYDARRYDYWGQGTQVTVSS
notes: C-term myc-His6 tag
B20: 21A81/1-122 (VHH)
VHH: EVQLVESGGGLAQAGGSLRLSCAVFGRSRYGMAWFRRAPGKEREFVAGIAWNGASIGSADSVRGRFTISRDNSENTVYFEMGSLKPEDTAVYYCAICRISWCAGAESDYGYWGQGTQVTVSS
notes: C-term myc-His6 tag
B21: 13E81/1-124 (VHH)
VHH: EVQLVESGGGLVQAGGSLRLSCAASGGTFSVYHMAWFRQAPGKEREFVAAIRSSGGLFYALSVSGRFTISRDNAKDTMYLQMNVLKPEDTAVYYCAASPVYYIDYSSQYKYGYWGQGTQVTVSS
notes: C-term myc-His6 tag
B22: 12C52/1-118 (VHH)
VHH: EVQLVESGGGLVQAGGSLRLSCAVSGGTFESDTMAWFRQAPGKEREFVARVSWIRTTYYSDSVKGRFTISKDNAKNTVYLQMNSLKPEDTAVYYCAAQTLGRSLYDYWGQGTQVTVSS
notes: C-term myc-His6 tag
B23: 11A91/1-124 (VHH)
VHH: EAQLVESGGGLVQAGGSLRLSCTASGRTYSTTMGWFRQAPGKEREFVAAIRWSGGSAFYADSVKGRFTISRDNAKNTVYLQMTSLMPEDTAVYYCADTPVYYQRYYDQNAYDYWGQGTQVTVSS
notes: C-term myc-His6 tag

The target in the test is T1, recombinant human ErbB2/Fc chimera (human, UniProt P04626 23-652).
T1 construct: bought from R&D Systems; also called rhErbB2-Fc; rhErb2-Fc; Fc part of the bought chimera not given; not described
Put plainly: ELISA, coated ErbB2/Fc. On the technique in general: An ELISA detects its analyte on a solid surface through an enzyme-linked reagent.
Take B1: the binding result is reported as “binds”. The same measure for B2: “binds”; for B3: “binds”; for B4: “binds”.

Consider B5, for which the binding result is given as “binds”. The same measure for B6: “binds”; for B7: “binds”. Then B8, with “binds”.

Take B9: the binding result was “binds”. Then B10, with “binds”; and B11, with “binds”. The same measure for B12: “binds”. The same measure for B13: “binds”; for B14: “binds”; for B15: “binds”. For B16, the binding result is “binds”. The same measure for B17: “binds”; for B18: “binds”.

B19: the binding result was “binds”. The same measure for B20: “binds”. On to B21, for which the binding result is recorded as “binds”. Then B22, with “binds”; and B23, with “binds”.

Source of the values: US20150232562A1 (Ablynx, published 2015).
